# Laboratory results as given in US20210122826A1 (MIT, published 2021).
# Substitutions are numbered along the chain they refer to.
# T1: Human KLRF1 (human, UniProt Q9NZS2 1-231)
# T1 construct: also called hKLRF1
# T1 sequence: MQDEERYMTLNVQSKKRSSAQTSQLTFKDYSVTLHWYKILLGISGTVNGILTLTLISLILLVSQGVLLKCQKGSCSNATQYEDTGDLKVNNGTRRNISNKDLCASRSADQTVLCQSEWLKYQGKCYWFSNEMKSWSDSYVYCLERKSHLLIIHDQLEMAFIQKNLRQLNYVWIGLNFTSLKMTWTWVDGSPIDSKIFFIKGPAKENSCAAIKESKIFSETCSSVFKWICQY
# T2: Human Clec4E (human, UniProt Q9ULY5 1-219)
# T2 construct: also called hClec4E
# T2 sequence: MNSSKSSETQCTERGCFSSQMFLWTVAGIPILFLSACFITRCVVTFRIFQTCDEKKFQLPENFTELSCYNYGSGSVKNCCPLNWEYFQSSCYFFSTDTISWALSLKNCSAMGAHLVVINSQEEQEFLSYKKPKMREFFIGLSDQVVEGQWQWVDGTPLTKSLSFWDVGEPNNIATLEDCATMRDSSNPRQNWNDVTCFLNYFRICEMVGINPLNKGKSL
# T3: Human CD94 (human, UniProt Q13241 1-179)
# T3 construct: also called hCD94
# T3 sequence: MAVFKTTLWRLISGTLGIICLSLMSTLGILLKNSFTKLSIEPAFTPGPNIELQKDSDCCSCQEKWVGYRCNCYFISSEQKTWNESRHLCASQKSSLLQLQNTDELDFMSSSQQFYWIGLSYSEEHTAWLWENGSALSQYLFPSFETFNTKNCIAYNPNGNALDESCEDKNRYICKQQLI
# T4: Human Clec10A (human, UniProt Q8IUN9 1-316)
# T4 construct: also called hClec10A
# T4 sequence: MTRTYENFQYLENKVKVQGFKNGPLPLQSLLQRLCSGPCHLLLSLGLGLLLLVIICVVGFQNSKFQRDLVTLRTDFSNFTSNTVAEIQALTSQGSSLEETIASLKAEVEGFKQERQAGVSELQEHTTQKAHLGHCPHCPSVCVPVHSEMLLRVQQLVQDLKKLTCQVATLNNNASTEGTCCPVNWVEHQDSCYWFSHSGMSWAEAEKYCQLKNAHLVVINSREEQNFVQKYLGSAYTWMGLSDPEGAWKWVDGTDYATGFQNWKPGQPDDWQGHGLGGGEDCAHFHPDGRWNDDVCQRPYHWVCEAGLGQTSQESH
# T5: Human KLRG1 (human, UniProt Q96E93 1-195)
# T5 construct: also called hKLRG1
# T5 sequence: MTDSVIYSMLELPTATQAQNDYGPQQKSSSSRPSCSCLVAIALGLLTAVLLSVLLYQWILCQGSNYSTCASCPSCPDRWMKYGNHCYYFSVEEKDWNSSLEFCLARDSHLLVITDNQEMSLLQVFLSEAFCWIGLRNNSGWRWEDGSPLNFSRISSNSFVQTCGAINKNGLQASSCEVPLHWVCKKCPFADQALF
# T6: Human KLRF2 (human, UniProt D3W0D1 1-207)
# T6 construct: also called hKLRF2
# T6 sequence: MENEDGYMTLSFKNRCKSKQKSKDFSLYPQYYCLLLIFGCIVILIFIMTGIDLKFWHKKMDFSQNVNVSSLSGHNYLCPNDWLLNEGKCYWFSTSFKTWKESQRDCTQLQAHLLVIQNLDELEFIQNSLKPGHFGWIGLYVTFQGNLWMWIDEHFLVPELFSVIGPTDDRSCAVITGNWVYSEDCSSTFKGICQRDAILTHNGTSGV
# T7: Human Clec7A (human, UniProt Q9BXN2 1-247)
# T7 construct: also called hClec7A
# T7 sequence: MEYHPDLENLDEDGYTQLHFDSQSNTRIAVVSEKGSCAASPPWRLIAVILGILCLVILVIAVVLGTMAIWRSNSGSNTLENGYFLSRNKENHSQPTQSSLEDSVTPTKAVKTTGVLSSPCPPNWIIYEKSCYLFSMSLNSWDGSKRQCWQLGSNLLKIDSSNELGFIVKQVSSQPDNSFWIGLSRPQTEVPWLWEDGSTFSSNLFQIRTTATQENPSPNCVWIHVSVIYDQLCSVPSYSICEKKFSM
# T8: Human CD209 (human, UniProt Q9NNX6 1-404)
# T8 construct: also called hCD209
# T8 sequence: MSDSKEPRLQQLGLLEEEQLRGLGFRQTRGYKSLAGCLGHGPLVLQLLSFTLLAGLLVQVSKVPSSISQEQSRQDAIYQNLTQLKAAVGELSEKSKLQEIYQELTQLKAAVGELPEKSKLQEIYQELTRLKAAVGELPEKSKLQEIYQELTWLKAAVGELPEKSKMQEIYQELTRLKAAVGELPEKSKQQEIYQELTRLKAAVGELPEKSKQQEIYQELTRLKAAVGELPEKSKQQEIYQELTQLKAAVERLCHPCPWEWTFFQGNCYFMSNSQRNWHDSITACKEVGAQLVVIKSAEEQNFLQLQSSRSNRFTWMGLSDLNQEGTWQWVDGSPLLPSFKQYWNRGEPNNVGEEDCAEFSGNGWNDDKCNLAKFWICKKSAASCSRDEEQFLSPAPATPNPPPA
# T9: Human Clec5A (human, UniProt Q9NY25 1-188)
# T9 construct: also called hClec5A
# T9 sequence: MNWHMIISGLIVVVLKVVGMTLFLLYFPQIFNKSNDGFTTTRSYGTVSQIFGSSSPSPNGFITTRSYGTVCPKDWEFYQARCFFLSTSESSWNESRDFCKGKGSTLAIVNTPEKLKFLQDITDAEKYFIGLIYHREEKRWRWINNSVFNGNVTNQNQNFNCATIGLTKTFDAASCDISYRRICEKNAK
# B1: KW1.2.1 (antibody, V domains shown)
# VH: EVQLVESGGGLVQPGGSLRLSCAASGSTFSSYAMSWVRQAPGKGLEWVSTISGSGGSTYYADSVKGRFTISRDNSRNTLYLQMNSLRAEDTAVYYCARGGLIPSGFDYWGQGTLVTVSS
# VL: DIQMTQSPSSPSASVGDRVTITCRASQSISSYLNWYQQKPGKAPKLLIYAASSLLSGVPSRFSGSGSGTDFTLTISSLQPEDFATYYCQQTYSTPLTFGQGTKVEIK
# B2: KM12.2.3 (antibody, human IgG1, V domains shown)
# VH: EVQLVESGGGLVQPGGSLRLSCAASGFTFSSYAMSWIRQAPGKGLEWVSAISGSGGSIYYADSVKGRFTISRDNSKNTLYLQMNSLRAEDTAVYYCARGYSDSYFYGPYYTFDYWGQGTLVTVSS
# VL: B1 VL with P11L, S28G, L55Q, P59S, T91S, S93N
# B3: KW7.3.7 (antibody, V domains shown)
# VH: B1 VH with S27F, T50A, I51T, V64A, R76K, L101Y, I102L, S104D, G105A, Q111R
# VL: B1 VL with P11L, R24W, K39E, L55Q
# B4: KW1.3.12 (antibody, human IgG1, V domains shown)
# VH: B1 VH with S27F
# VL: B1 VL with P11L, T94A
# B5: KW7.2.2 (antibody, V domains shown)
# VH: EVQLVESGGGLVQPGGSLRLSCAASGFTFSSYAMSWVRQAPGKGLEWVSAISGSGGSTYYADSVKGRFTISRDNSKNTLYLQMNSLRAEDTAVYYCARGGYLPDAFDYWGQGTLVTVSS
# VL: B1 VL with P11L, K45R, L46F, L55Q
# B6: KM12.4.7 (antibody, V domains shown)
# VH: B2 VH with S21P, N84D
# VL: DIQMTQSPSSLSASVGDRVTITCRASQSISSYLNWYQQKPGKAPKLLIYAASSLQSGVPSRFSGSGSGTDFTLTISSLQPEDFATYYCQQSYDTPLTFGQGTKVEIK
# B7: KW17.3.4 (antibody, V domains shown)
# VH: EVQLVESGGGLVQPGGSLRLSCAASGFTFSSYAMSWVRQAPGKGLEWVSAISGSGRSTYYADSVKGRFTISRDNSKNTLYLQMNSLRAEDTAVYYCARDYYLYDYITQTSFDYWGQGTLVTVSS
# VL: QSVLTQPPSVSGAPGQRVTISCTGSSSNIGAGYDVHWYQQLPGTAPKLLIYGNSNRPSGVPDRFSGSQSGTSASLAITGLQAEDEADYYCQSYNSGHTVFGGGTQLTVL
# Biological target: T1, Human KLRF1
# Experiment: flow, Jurkat, 100 nM Ab
row,MFI normalized to WT,Binder
1,1.14,B1
2,1.18,B2
3,1.19,B3
4,1.02,B4
5,1.18,B5
6,1.14,B6
7,0.91,B7

# Biological target: T10, Human Clec9A (human, UniProt Q6UXN8 1-241)
# T10 construct: also called hClec9A
# Experiment: flow, Jurkat, 100 nM Ab
# T10 sequence (Q6UXN8 whole entry): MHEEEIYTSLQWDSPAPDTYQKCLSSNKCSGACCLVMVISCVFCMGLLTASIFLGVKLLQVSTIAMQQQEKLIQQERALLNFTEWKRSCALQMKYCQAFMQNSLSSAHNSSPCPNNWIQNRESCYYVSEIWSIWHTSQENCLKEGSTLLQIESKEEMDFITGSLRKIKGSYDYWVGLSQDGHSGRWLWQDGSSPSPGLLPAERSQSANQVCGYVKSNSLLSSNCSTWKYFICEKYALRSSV
row,MFI normalized to WT,Binder
1,1.24,B1
2,1.42,B2
3,1.01,B3
4,1.11,B4
5,1.42,B5
6,1.17,B6
7,1.13,B7

# Biological target: T2, Human Clec4E
# Experiment: flow, Jurkat, 100 nM Ab
row,MFI normalized to WT,Binder
1,0.99,B1
2,1.68,B2
3,0.88,B3
4,1.17,B4
5,1.1,B5
6,1.01,B6
7,0.97,B7

# Biological target: T3, Human CD94
# Experiment: flow, Jurkat, 100 nM Ab
row,MFI normalized to WT,Binder
1,1.13,B1
2,1.36,B2
3,1.01,B3
4,1.07,B4
5,1.29,B5
6,1.2,B6
7,0.97,B7

# Biological target: T4, Human Clec10A
# Experiment: flow, Jurkat, 100 nM Ab
row,MFI normalized to WT,Binder
1,0.94,B1
2,1.44,B2
3,0.89,B3
4,0.9,B4
5,0.9,B5
6,1.01,B6
7,0.98,B7

# Biological target: T5, Human KLRG1
# Experiment: flow, Jurkat, 100 nM Ab
row,MFI normalized to WT,Binder
1,1.24,B1
2,1.42,B2
3,1.06,B3
4,1.25,B4
5,1.3,B5
6,1.25,B6
7,1.08,B7

# Biological target: T6, Human KLRF2
# Experiment: flow, Jurkat, 100 nM Ab
row,MFI normalized to WT,Binder
1,1.05,B1
2,1.37,B2
3,1.03,B3
4,1.08,B4
5,1.12,B5
6,1.13,B6
7,1.03,B7

# Biological target: T11, Human OLR1 (human, UniProt P78380 1-273)
# T11 construct: also called hOLR1
# Experiment: flow, Jurkat, 100 nM Ab
row,MFI normalized to WT,Binder
1,1.28,B1
2,1.33,B2
3,1.15,B3
4,1.24,B4
5,1.42,B5
6,1.3,B6
7,1.03,B7

# Biological target: T12, human CD161 (human, UniProt Q12918 1-225)
# T12 construct: UniProt Q12918; also called hCD161; KLRB1
# Experiment: flow, Jurkat, 100 nM Ab
row,MFI normalized to WT,Binder
1,172,B1
2,122,B2
3,163,B4
4,145,B5
5,166,B6
6,143,B7

# Biological target: T7, Human Clec7A
# Experiment: flow, Jurkat, 100 nM Ab
row,MFI normalized to WT,Binder
1,1.25,B1
2,1.11,B2
3,1.18,B3
4,1.38,B4
5,1.46,B5
6,1.36,B6
7,1.16,B7

# Biological target: T8, Human CD209
# Experiment: flow, Jurkat, 100 nM Ab
row,MFI normalized to WT,Binder
1,0.96,B1
2,1.48,B2
3,0.85,B3
4,0.91,B4
5,1,B5
6,0.97,B6
7,0.94,B7

# Biological target: T9, Human Clec5A
# Experiment: flow, Jurkat, 100 nM Ab
row,MFI normalized to WT,Binder
1,1.13,B1
2,1.41,B2
3,1.08,B3
4,1.19,B4
5,1.24,B5
6,1.31,B6
7,1.12,B7
